Assay: yeast display, Sf9 membrane polyspecificity reagent, FACS + sequencing; frameworks hold sequencing errors
Summary of the method: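 Genes from sorted yeast were amplified by colony PCR, read by MiSeq 2 × 250 sequencing and filtered on CDR length. These cells carried a synthetic nanobody library in Saccharomyces cerevisiae BJ5465 and were sorted by FACS into low and high (top ~1%) gates on anti-HA and streptavidin fluorescence. Polyreactivity is labelled according to the gate of origin.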

| Sequence | polyreactivity (PSR sort gate) |
| --- | --- |
| QVQLVESGGGLVQAGGSLRLSCAASGSTFDPYAMGWYRQAPGKERELVAAITSGGGTKYADSVKGRFTISRDNAKNTVYLQMNSLKPEDTAVYYCAADYFDSSYQPTDSILYEYWGQGTQVTVSS | low polyreactivity |
| QVQLVESGGGLVQAGGSLRLSCAASGSTFDPYGMGWYRQAPGKERELVAAITSSGRTNYADSVKGRFTISRDNAKNTVYLQMNSLKPEDTAVYYCATRKERYFYRGYEYWGQGTQVTVSS | low polyreactivity |
| QVQLVESGGGLVQAGGSLRLSCAASGSTFDQYALGRYRQAPGKERELVADITSSDGSTYYADSVKGRFTISRDIAKNTVYLQMNSLKPEDTAVYYCNADYRYIWTYWGWSIYDYWGQGTQVTVSS | high polyreactivity |
| QVQLVESGGGLVQAGGSLRLSCAASGSTFDRNAMGWYRKAPGKERELVAAISKRSGSTYYADSVKGRFTISRDNAKNTVYLQMNSLKPEDTAVYYCAADRISYRGMGSWGQGTQVTVSS | high polyreactivity |
| QVQLVESGGGLVQAGGSLRLSCAASGSTFDRYAMGWYRQAPGKERELVAAISHSGGRTYYADSVKGRFTISRDNAKNTVYLQMNSLKPEDTAVYYCAAKSRSGTEAAYGYWGQGTQVTVSS | low polyreactivity |
| QVQLVESGGGLVQAGGSLRLSCAASGSTFDRYAMGWYRQAPGKERELVAAISWSAGRTYYADSVKGRFTISRDNAKNTVYLQMNSLKPEDTAVNYCAADQIVSGTYDYYWGQGTQVTVAS | low polyreactivity |
| QVQLVESGGGLVQAGGSLRLSCAASGSTFDRYAMGWYRQAPRKERELVAANSWSAGRTDYADSVKGRFTISRDNAKNTVYLQMNSLKPEDTAVYYCAADYWYRTFYGYFGYDYWGQGTQVTVSS | low polyreactivity |
| QVQLVESGGGLVQAGGSLRLSCAASGSTFDSYAMGWYRQAPGKERELVAAITRSDASTYYADSVKGRFTISRDNAKNTVYLQMNSLKPEDTAVYYCDADTSLVYYGGDWEYYYWGQGTQVTVSS | low polyreactivity |
| QVQLVESGGGLVQAGGSLRLSCAASGSTFDSYGMGWYRQAPGKERELVASISSRGGSTYYADSVKGRFTLSRDNAKNTVYFQMNSLKPEDTAVYYCAAKGPRRWGSGFDYWGQGTQVTVSS | low polyreactivity |
| QVQLVESGGGLVQAGGSLRLSCAASGSTFDSYGMGWYRQAPGKERELVGSISSRGGSTYYADSVKGRFTISRDNAKNTVYLQMNSLKPEDTAVYYCAAEWLSWFHGYGMYYWGQGTQVTVSS | low polyreactivity |
| QVQLVESGGGLVQAGGSLRLSCAASGSTFDTYAMGWYRPAPRKERELLAAISRSGTSTYYADSVKGRFTISRDNAKNTVYLQMNSLKPEESAVYYCAAYGPRVNGEIGREYYYWGQGTQVTVSS | low polyreactivity |
| QVQLVESGGGLVQAGGSLRLSCAASGSTFDVNAMGWYRQAPGKERELVADITSGGSTNYADSVKGRFTISRDNAKNTVYLQMNSLKREDTAVYYCARDDWFGFIRVQEMDYWGQGTQVTVSS | low polyreactivity |
| QVQLVESGGGLVQAGGSLRLSCAASGSTFDVNAMGWYRQAPGKERELVAVITSGGSTNYADSVKGRFTISRDNAKNTVYLQMNSLKPEDTAVYYCAKDSRTLYDYWGQGTQVTVSS | low polyreactivity |
| QVQLVESGGGLVQAGGSLRLSCAASGSTFDVYAMGWYRQAPGKERELVAAISFSSGSTYYADSVKGRFTISRDNAKNTVYLQMNSLKPEDTAVYYCAARTYRYPYWGYDYWGQGTQVTVSS | high polyreactivity |
| QVQLVESGGGLVQAGGSLRLSCAASGSTFDVYAMGWYRQAPGKERELVAAISLGTGITYYADSVKGRFTISRDNAKNTVYFQMNSLKPEDTAVYYCAVAIETGYGAYDGYIYYYWGQGTQVTVSS | high polyreactivity |
| QVQLVESGGGLVQAGGSLRLSCAASGSTFDVYAMGWYRQAPGKERELVATISWIGGSTYYADSVKGRFTISRDYAKKTVYLQMNSLKPEDTAVYYCAAESSPLEYDYWGQGTQVTVSS | low polyreactivity |
| QVQLVESGGGLVQAGGSLRLSCAASGSTFDVYAMGWYRQATGKERELVAVINTSGTRTYYADSVKGRFTISRDNSKNTVYLQMISLKPEDTAVYYCNAGGHLEMNYWGEGTQVTVSS | low polyreactivity |
| QVQLVESGGGLVQAGGSLRLSCAASGSTFDVYARGGYRQAPGKERELVAAITSGGTTNYADSVKGRFTLSRDNAKNTVYLQMNSLKPEDTAVYYCAKDSRNVYWDYGYWGQGTQVTVSS | low polyreactivity |
| QVQLVESGGGLVQAGGSLRLSCAASGSTFDWYAMGWYRQAPGKERELVAAISSDDSTYYADSVKGRFTISRDNAKNTVYLQMNSLKPEDTAVYYCAVDVYSDYGDYGYWGQGTQVTVSS | low polyreactivity |
| QVQLVESGGGLVQAGGSLRLSCAASGSTFDWYAMGWYRQAPGKERELVAAITSGGSTYYADSVKGRFTISRDNAKNTVYLQMNSLKPEDTAVYYCAAESRQVRYILYYYWGQGTQVTVSS | low polyreactivity |
| QVQLVESGGGLVQAGGSLRLSCAASGSTFDWYVMGWNRQAPGKETELVAAINQGSGSTYYADSVKGRFTISRDNAKNPVYLQMNSLKPEDTAVYYCAADRYGAGYLYWPYDYWGQGTQVTVSS | low polyreactivity |
| QVQLVESGGGLVQAGGSLRLSCAASGSTFDYNDMGWYRQAPGKERELVASITFSGGTYDADSVKGRFTISRDNAKTTVYLQMNSLTPEDTAVYYCNAVYFFYIDPWNSYPTYDYWGQGTQVTVSS | high polyreactivity |

| Sequence | polyreactivity (PSR sort gate) |
| --- | --- |
| QVQLVESGGGLVQAGGSLRLSCAASGSTFDYNTMGWYRQAPGKERELVAAINNSGGSTYYADSVKGRFTISRDNAKNTVYLQMNSLKPEDTAVYYCAAVSYRRHFGPYNYWGQGTQVTVSS | low polyreactivity |
| QVQLVESGGGLVQAGGSLRLSCAASGSTFDYYAMGWYRPAPGKERELVAAISRRGGGTYYADSVKGRFTISRDNAKNTVYLQMNSLKPEDTAVYYCAKAVKYPTKALAVGYWGQGTQVTVSS | high polyreactivity |
| QVQLVESGGGLVQAGGSLRLSCAASGSTFDYYAMGWYRQAPGKERELVAAISGSGDRTYYADSVKGGFTISRDNAKNTVYLQMNSLKREDTAVYYCAKYGRTRFYYWGQVTQVTVSS | high polyreactivity |
| QVQLVESGGGLVQAGGSLRLSCAASGSTFDYYAMGWYRQAPGKERELVAAITWSGGTTYYADSVKGRFTISRDNAKNTVYLQMNSLKPEDTAVYYCAAESTLPIIDRDDYWGQGTQVTVSS | low polyreactivity |
| QVQLVESGGGLVQAGGSLRLSCAASGSTFDYYAMGWYRQTPGNDRELVAALSWSGGSTYYADSVKGRFTISRDNAKNTVYLQMNSLKPEDTAVYYCATGTYCPRYNYFEGYYWGQGTQVTVSS | high polyreactivity |
| QVQLVESGGGLVQAGGSLRLSCAASGSTFDYYDMGWYRQAPGKERELVATITSGGSTNYADSVKGRFTISRDNAKNTVYLQMNSLKPEDTAVYDCAADIGGDGEGYDYWGQGTQVTVSS | low polyreactivity |
| QVQLVESGGGLVQAGGSLRLSCAASGSTFEANAMGWYRQAPGKERELVAVITRTGGSTYYADSVKGRFTISRDNAKNTVYLQMNSLKPVDTAVYYCAADGVVPGRFFWPAHEYDYWGQGTQVTVSS | low polyreactivity |
| QVQLVESGGGLVQAGGSLRLSCAASGSTFEAYAMGWDRQAPGKERELVAAISYSGSSTYYADSVKGRFTISRDNAMNSVYLQMHRLKPEDTALTYCAARASKGRRMGYWGQGTQVTVSS | low polyreactivity |
| QVQLVESGGGLVQAGGSLRLSCAASGSTFEAYAMGWYRQAPGKERELVATITGSGGRTYADSVKGRFTITRDNAKNTVYLQMNSLKPEDTAVYYCAADCLKVAEYDYWGQGTQVTVSS | low polyreactivity |
| QVQLVESGGGLVQAGGSLRLSCAASGSTFEGNDMGWYRQAPGKERELVAAITTGAGTNYADSVKGRFTISRDNAKNTVYLQMNSLKPEDTAVYYCATRVYWYYDPYYSKYTYDYWGQGTQVTVSS | low polyreactivity |
| QVQLVESGGGLVQAGGSLRLSCAASGSTFEGYAMGWYRQAPGKERELVAVISSGSITKYADSVKGRFTISRDNAKNTVYLQMNSLKQEDTAVYYCAADWTYVRFDYWGQGTQVTVSS | low polyreactivity |
| QVQLVESGGGLVQAGGSLRLSCAASGSTFEIYAMGWYRQAPGKERELVAAIDFSGGSTYYADSVKGRFTISRDNAKKTLYLQMNSLKPEDTAVYYCAVDSASDTIYDYWGQGTQVTVSS | low polyreactivity |
| QVQLVESGGGLVQAGGSLRLSCAASGSTFEIYAMGWYRQAPGKERELVATITWSGGSTYYADSVKGRFTISRDNAKNTVYLQMNSLKPEDTAVYYCAAESIYYPVAQYYYSFEYWGQGTQVTVSS | low polyreactivity |
| QVQLVESGGGLVQAGGSLRLSCAASGSTFEIYVMGWYRQAPGKERELVAAISRVGNTSYADSVKGRFTISRDNAKNTVYLQMNSLKPEDTAVYYCAADAPSWYDRQYDYWGQGTQVTVSS | low polyreactivity |
| QVQLVESGGGLVQAGGSLRLSCAASGSTFELYAMGWYRQAPGKERELVASITGDSTNYADSVKGRFTISRDNAKNTVYLQMNSLKPEDTAVYYCAKPYYDGRTHFDSWGQGTQVTVSS | low polyreactivity |
| QVQLVESGGGLVQAGGSLRLSCAASGSTFEPYAMGWYRQAPGKERELVAAISWSGGSTYYADSVKGRFTISRDNAKNTVYLQMNSLQPEDTAVYYCAAESGVPYYLPVVIYYYWGQGTQVTVSS | high polyreactivity |
| QVQLVESGGGLVQAGGSLRLSCAASGSTFEPYAMGWYRQAPGKERELVATITLRGGTTNYADSVKGRFTISRDNAKNTVYLQMNSLKPEDTAVYYCNARKLTGYIRYRTGKMNYWGQGTQVTVSS | high polyreactivity |
| QVQLVESGGGLVQAGGSLRLSCAASGSTFERYAMGWYRQAPGKERELVAAITWGGGSTNYADSVKGRFTISRDNAKNTVYLQMNSLKPEDTAVYYCAREWRTRIYYYWGQGTQVTVSS | low polyreactivity |
| QVQLVESGGGLVQAGGSLRLSCAASGSTFEVYAMGWYRQAPGKEREMVAAINSRGTSTYYADSVKGRFTISRDNEKNTVYIQMNSLKPEDTAVDFCAARHVYYSGYDYWGQGTQVTGSS | low polyreactivity |
| QVQLVESGGGLVQAGGSLRLSCAASGSTFEYNAMGWYRQAPGKEREFVAASSRTGSRTYYADSVKGRFTISRDNAKHTVYLQMNSLKPEDTAVYYCAVSVPYGMDYWGQGTQLTVSS | high polyreactivity |
| QVQLVESGGGLVQAGGSLRLSCAASGSTFEYNAMGWYRQAPGKERELVAAISRTANANYADSVKGRFTISRDNAKNTFYLQMNSLKPEETAVYYCAADFLDSKVHVRFGYWGQGTQVTVSS | low polyreactivity |

Reference: the nanobody polyreactivity screen of Harvey et al. (2022)
